Experimental data: paper PMC8632923

Assays:
Conditions in all cases: reference: wild type; sites Y38
Drp1 [1] = molecular target: Drp1 (UniProt O00429); experiment: co-IP, immunoblot
Drp1 [2] = molecular target: Drp1 (UniProt O00429); experiment: Flag-bead Fis1 pull-down of recombinant Drp1
Drp1 [3] = molecular target: Drp1 (UniProt O00429); experiment: anti-Flag IP of Fis1-Flag, Drp1 blot

- binding against the reference (Drp1 [1]): weaker
- binding against the reference (Drp1 [2]): weaker
- binding against the reference (Drp1 [3]): weaker
Substance: Fis1 (from UniProt Q9Y3D6) Y38F
